The results in this text go back to patent publication US20220025023A1 (AC IMMUNE, published 2022).

Where no end group is shown, it is not given here.

The target of one assay is T1, TP-23 (also: biotinylated, site not given here).
T1 construct: also called TP-23 peptide
T1 peptide: TEDMTEDELREFFSQ
Kind of assay: indirect ELISA, biotinylated 15-mer on streptavidin plate, hybridoma supernatant. As to the method:
(§1) Serum-free supernatants were harvested from stable hybridomas. The supernatants containing antibodies of interest were then screened by an indirect ELISA assay to determine epitopes. Epitopes were mapped using a library of TDP-43 15-mer peptides. Briefly, 96-well streptavidin-coated 96-well ELISA plates were incubated with 5 μg/mL of biotinylated 15-mer peptides spanning the amino acids (aa) 199-285 of human TDP-43 with 9 aa offset and 6 aa overlap. Plates were washed thoroughly with 0.05% Tween-20/PBS and then blocked with 1% bovine serum albumin (BSA) in 0.05% Tween-20/PBS for 1 hour at 37° C. The antibody contained in the hybridoma supernatant was then added at the indicated dilutions, and incubated for 2 hours at 37° C. after which the plates were washed as described previously. An AP-conjugated anti-mouse IgG secondary antibody (Jackson ImmunoResearch Laboratories, United Kingdom) was added at 1/1000 dilution in 0.05% Tween-20/PBS for 1 hour at 37° C. After the final wash, plates were incubated with pNPP (Sigma-Aldrich, Switzerland) an AP substrate solution, and read at 405 nm using an ELISA plate reader (Tecan).

The next assay deals with T2, TP-29 (also: biotinylated, site not given here).
T2 construct: also called TP-29 peptide
T2 peptide: ISVHISNAEPKHNSN
Described as above. The protocol:
as §1

A further assay concerns the target T3, TP-26 (also: biotinylated, site not given here).
T3 construct: also called TP-26 peptide
T3 peptide: FRAFAFVTFADDQIA
The description is as above. The protocol: as §1

The target of the next assay is T4, TP-27 (also: biotinylated, site not given here).
T4 construct: also called TP-27 peptide
T4 peptide: ADDQIAQSLCGEDLI
Described as above. As to the method: as §1

The next assay has as its target T5, TP-31 (also: biotinylated, site not given here).
T5 construct: also called TP-31 peptide
T5 peptide: ERSGRFGGNPGGFGN
Described as above. As to the method: as §1

A further assay addresses T6, TP-30 (also: biotinylated, site not given here).
T6 construct: also called TP-30 peptide
T6 peptide: PKHNSNRQLERSGRF
The description is as above. The protocol: as §1

The next assay addresses T7, TP-28 (also: biotinylated, site not given here).
T7 construct: also called TP-28 peptide
T7 peptide: CGEDLIIKGISVHIS
The description is as above. As to the method:
as §1

Assay [1] deals with T8, recombinant human full-length TDP-43 (human, UniProt Q13148 1-414).
T8 construct: Recombinant full-length protein; also called FL TDP-43; recFL TDP-43
As to the kind of experiment: Luminex bead assay, antibody serial dilution, FL TDP-43 beads.

The next assay has as its target T9, BSA (bovine, UniProt P02769).
T9 construct: not specified; also called bovine serum albumin
Kind of assay: indirect ELISA, control coat in the 15-mer series, hybridoma supernatant. (In general: ELISA stands for enzyme-linked immunosorbent assay.)

The target of the next assay is T10, TDP-1 peptide (human).
T10 construct: Immunogen peptide; conjugated to Luminex beads in the assay; also called TDP-43 aa 212-272
T10 peptide: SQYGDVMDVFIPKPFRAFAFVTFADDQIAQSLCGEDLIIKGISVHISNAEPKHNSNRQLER
Kind of assay: Luminex bead assay, antibody serial dilution, TDP-1 peptide beads.

For a further assay, the target named is T11, TDP-211 peptide (human).
T11 construct: 8-mer of human TDP-43; same ELISA method as for the biotinylated 15-mers
T11 peptide: FSQYGDVM
As to the kind of experiment: indirect ELISA, 8-mer peptide library. The protocol:
as §1
(§2) Furthermore, antibodies were tested using an indirect ELISA on a peptide library of 8-mer peptides with 7 aa overlap covering the sequence of human TDP-43 from aa 210 to aa 231, using the same ELISA method as describe previously in this section.

The target in the next assay is T12, TDP-222 peptide (human).
T12 construct: 8-mer of human TDP-43; same ELISA method as for the biotinylated 15-mers
T12 peptide: IPKPFRAF
As to the kind of experiment: indirect ELISA, 8-mer peptide library. As to the method: as §1, §2

For the next assay, the target named is T13, TDP-220 peptide (human).
T13 construct: 8-mer of human TDP-43; same ELISA method as for the biotinylated 15-mers
T13 peptide: VFIPKPFR
As to the kind of experiment: indirect ELISA, 8-mer peptide library. As to the method: as §1, §2

In the next assay the target is T14, TDP-217 peptide (human).
T14 construct: 8-mer of human TDP-43; same ELISA method as for the biotinylated 15-mers
T14 peptide: VMDVFIPK
As to the kind of experiment: indirect ELISA, 8-mer peptide library. The protocol: as §1, §2

The next assay concerns the target T15, TDP-213 peptide (human).
T15 construct: 8-mer of human TDP-43; same ELISA method as for the biotinylated 15-mers
T15 peptide: QYGDVMDV
Kind of assay: indirect ELISA, 8-mer peptide library. The protocol:
as §1, §2

Assay [2] has as its target T8, recombinant human full-length TDP-43. As to the kind of experiment: SPR avidity (Biacore T200), TDP-43 monomer immobilised, antibody as analyte, 1:1 model. The protocol: (§3) Avidity measurements were performed on an SPR instrument (Biacore T200, GE Healthcare Life Sciences) using CM5 Series S sensor chips. Recombinant human FL TDP-43 monomers or aggregated recombinant human FL TDP-43 was immobilized on a CM5 chip using amine coupling, injecting at a flow rate of 5 μl/min for 420 seconds. Conditions were optimized so that less than 200 RU protein was immobilized. Binding of the antibodies and the control antibody (2E2-D3) were obtained by injecting at: 1.37, 4.11, 12.33, 37, 111, and 333 nM in 1×PBS P+ at a flow rate of 50 μl/min for 90 s contact time and 600 s dissociation phase, with three regeneration cycles of the ligand surface by 10 mM Glycine-HCl (pH 1.7). Kinetics were analyzed using a 1:1 fitting model (see FIG. 8).

For assay [3], the target named is T16, aggregated recombinant human FL TDP-43 (human, UniProt Q13148 1-414).
T16 construct: also called TDP-43 aggregates
As to the kind of experiment: SPR avidity (Biacore T200), aggregated TDP-43 immobilised, antibody as analyte, 1:1 model. The protocol:
as §3
On the technique in general: In SPR one partner is held on a chip, and binding of the other changes the refractive index at the surface.

Another assay concerns the target T17, TDP-215 peptide (human).
T17 construct: same ELISA method as for the biotinylated 15-mers
T17 peptide: GDVMDVFI
As to the kind of experiment: indirect ELISA, 8-mer peptide library, OD 405 nm. The protocol: as §1, §2

For a further assay, the target named is T18, TDP-3 peptide (human).
T18 construct: Irrelevant control peptide; conjugated to Luminex beads in the assay; also called TDP-43 aa 310-370; irrelevant target
T18 peptide: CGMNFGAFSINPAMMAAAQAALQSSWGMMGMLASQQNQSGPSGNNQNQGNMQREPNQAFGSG
Kind of assay: Luminex bead assay, TDP-3 peptide beads (irrelevant target).

A further assay has as its target T19, TDP-216 peptide (human).
T19 construct: 8-mer of human TDP-43; same ELISA method as for the biotinylated 15-mers
T19 peptide: DVMDVFIP
Kind of assay: indirect ELISA, 8-mer peptide library. As to the method:
as §1, §2

T9 sequence (P02769 25-607 limits assumed): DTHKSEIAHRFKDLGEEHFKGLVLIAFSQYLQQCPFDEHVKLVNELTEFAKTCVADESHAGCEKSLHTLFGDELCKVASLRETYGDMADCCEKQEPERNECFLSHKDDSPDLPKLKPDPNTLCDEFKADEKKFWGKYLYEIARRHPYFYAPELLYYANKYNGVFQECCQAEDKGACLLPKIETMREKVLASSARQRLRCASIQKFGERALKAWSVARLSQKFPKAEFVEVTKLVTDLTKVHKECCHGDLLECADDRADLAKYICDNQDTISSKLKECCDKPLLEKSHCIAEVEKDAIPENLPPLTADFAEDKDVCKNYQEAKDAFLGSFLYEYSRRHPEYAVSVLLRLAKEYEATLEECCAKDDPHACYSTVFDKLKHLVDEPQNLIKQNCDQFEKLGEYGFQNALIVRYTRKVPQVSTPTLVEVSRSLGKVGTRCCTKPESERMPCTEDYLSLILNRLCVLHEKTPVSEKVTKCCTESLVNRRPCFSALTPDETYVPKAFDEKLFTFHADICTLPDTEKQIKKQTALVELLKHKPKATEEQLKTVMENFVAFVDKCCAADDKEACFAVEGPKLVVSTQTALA
T16 sequence (Q13148 whole entry): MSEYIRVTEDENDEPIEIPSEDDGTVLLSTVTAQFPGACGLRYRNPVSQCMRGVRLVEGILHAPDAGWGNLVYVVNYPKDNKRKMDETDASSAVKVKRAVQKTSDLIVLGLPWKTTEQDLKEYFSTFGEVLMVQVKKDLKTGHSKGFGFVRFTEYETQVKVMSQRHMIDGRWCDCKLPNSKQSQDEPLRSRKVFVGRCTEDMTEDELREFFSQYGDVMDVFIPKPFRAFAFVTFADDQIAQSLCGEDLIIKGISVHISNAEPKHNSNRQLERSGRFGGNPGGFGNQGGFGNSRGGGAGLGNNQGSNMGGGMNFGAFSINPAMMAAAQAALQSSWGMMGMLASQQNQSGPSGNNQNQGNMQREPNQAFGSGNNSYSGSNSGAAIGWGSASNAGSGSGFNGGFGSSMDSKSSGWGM
T8 sequence (Q13148 whole entry): as above

B1: ACI-7062-410H3-Ab1 (antibody, IgG1, V domains shown)
VH: DVQLVESGGGLVQPGGSRRLSCAASGFTFSSFGMHWVRQAPEKGLEWVAYIRSGSDIIYYADSVKGRFTISRDNPENTLFLQMTSLRSEDTAMYYCARSGTTVPFDYWGQGTSLTVSS
VL: DIVMTQSPSSLAMSVGQKVTMSCKSSQSLLNSGNQKNYLAWYQQKPGQSPELLLYFASTRASGVPDRFIGSGSGTDFTLTISSVQAEDLADYFCQQHYSIPLTFGAGTKLELKR
notes: also called 410H3B9; clone 7
Consider B1, for which the binding result with TP-23, with TP-29, in the assay with TP-26, with TP-27, in the assay with TP-31 and with TP-30 was “no binding” each time. Also, the binding result with TP-28, with BSA, with TDP-211 peptide, with TDP-222 peptide, with TDP-220 peptide and with TDP-217 peptide was “no binding” throughout. The results for the binding result with TDP-213 peptide, in the assay with TDP-215 peptide and in the assay with TDP-3 peptide were “no binding”, “binds” and “no binding”, respectively. Also, the EC50 in [1] is 30 pM; in the assay with TDP-1 peptide, < 10 pM. The Kd in assay [2] turned out to be 6000 pM; in assay [3] it was 19200 pM.

B2: ACI-7062-412A7-Ab1 (antibody, IgG2b, V domains shown)
VH: DVQLVESGGGLVQPGGSRRLSCAASGFTFSSFGMHWVRQAPEKGLEWVAYIRSGSDIIYYADSVKGRFTISRDNPENTLFLQMTSLRSEDTAMYYCARSGTTVPFDYWGQGTSLTVSS
VL: DIVMTQSPSSLAMSVGQKVTMSCKSSQSLLNSGNQKNYLAWYQQKPGQSPELLLYFASTRASGVPDRFIGSGSGTDFTLTISSVQAEDLADYFCQQHYSIPLTFGAGTKLELKR
notes: also called 412A7B7; clone 9
As to B2, the binding result with TP-23, with TP-29, in the assay with TP-26, with TP-27, with TP-31 and in the assay with TP-30 was “no binding” throughout. Besides, the binding result with TP-28, with BSA, in the assay with TDP-211 peptide, with TDP-222 peptide, in the assay with TDP-220 peptide and in the assay with TDP-217 peptide was “no binding” each time. Besides, the binding result with TDP-213 peptide is “no binding”; with TDP-215 peptide, “binds”; with TDP-3 peptide it was “no binding”. The EC50 in assay [1] is 30 pM; with TDP-1 peptide it was < 10 pM. Further, the Kd is 1000 pM in [2] and 300 pM in assay [3].

B3: ACI-7062-406E3-Ab1 (antibody, IgG2a, V domains shown)
VH: QVTLKESGPAILQPSQTLSLTCSFSGFSLTTYGIGVGWIRQPSGKGLEWLAHIWWNDNKYYNTALKSRLTVSKDTSNNQVFLKIASVDTADTATYYCARVYGNLYYFAYWGQGTTLTVSS
VL: DVLMTQTPLSLPVSLGDRASISCRSSQSIVHRSGNTYLEWYLQKPGQSPKLLIYKVSNRFSGVPDRFSGSGSGTDFTLKISRVEAEDLGVYYCFQGSHVPTFGAGTKLELKR
notes: also called 406E3D5; clone 5
For B3, the binding result with TP-23, with TP-29, with TP-26, with TP-27, with TP-31 and with TP-30 was “no binding” in each case. Further, the binding result with TP-28, with BSA, with TDP-211 peptide, with TDP-222 peptide, in the assay with TDP-216 peptide and with TDP-220 peptide was “no binding” in each case. The binding result with TDP-217 peptide is on record as “no binding”; with TDP-213 peptide it was “no binding”; in the assay with TDP-215 peptide, “binds”; with TDP-3 peptide, “no binding”. Further, the EC50 (in [1]; with TDP-1 peptide) was < 10 pM each time. The Kd is 800 pM in assay [2] and 200 pM in [3].

B4: ACI-7062-416A11-Ab1 (antibody, IgG2a, V domains shown)
VH: QVTLKESGPGILQSSQTLSLTCSFSGFSLSTYGIGVGWIRQPSGKGLEWLAHIWWNDNKYYNTALKSRLTISKDTSNNQVFLKIASVDTADAATYYCARVYGNLYYFGYWGQGTTLTVSS
VL: DVLMTQTPLSLPVSLGDRASISCRSSQSIVHSSGNTYLEWYLQKPGQSPKLLIYKVSNRFSGVPDRFSGSGSGTDFTLKISRVEAEDLGVYYCFQGSRVPTFGAGTKLELKR
notes: also called 416A11B3; clone 18
B4: the binding result in the assay with TP-23, with TP-29, with TP-26, with TP-27, with TP-31 and with TP-30 was “no binding” in each case. The binding result with TP-28, with BSA, with TDP-211 peptide, in the assay with TDP-222 peptide, with TDP-216 peptide and in the assay with TDP-220 peptide was “no binding” throughout. Besides, the binding result in the assay with TDP-217 peptide is recorded as “no binding”; with TDP-213 peptide it was “no binding”; in the assay with TDP-215 peptide it was “binds”; with TDP-3 peptide, “no binding”. Besides, the EC50 is 15 pM in [1] and < 10 pM in the assay with TDP-1 peptide. Moreover, the Kd was found to be 2400 pM in assay [2] and 1200 pM in assay [3].

One may read the EC50 as the concentration at which the effect is half-maximal.
